In PMC9482650, “Quantitative fragmentomics allow affinity mapping of interactomes” (Nature Communications, 2022):

Tests used:
Test in all cases: holdup assay
Design in all cases: key: below the threshold = too weak to quantify, mostly under pKd 3.1 to 4
LDB3, O75112 = molecular target: LDB3, O75112
TJP1_2, Q07157 = molecular target: TJP1_2, Q07157
PICK1, Q9NRD5 = molecular target: PICK1, Q9NRD5
MAST2, Q6P0Q8 = molecular target: MAST2, Q6P0Q8
IL16_4, Q14005 = molecular target: IL16_4, Q14005
GORASP1, Q9BQQ3 = molecular target: GORASP1, Q9BQQ3
MAST1, Q9Y2H9 = molecular target: MAST1, Q9Y2H9
IL16_1, Q14005 = molecular target: IL16_1, Q14005
PTPN3, P26045 = molecular target: PTPN3, P26045
NHERF3_3, Q5T2W1 = molecular target: T1, NHERF3_3, Q5T2W1
T1 sequence (Q5T2W1 238-333, limits assumed, looked up): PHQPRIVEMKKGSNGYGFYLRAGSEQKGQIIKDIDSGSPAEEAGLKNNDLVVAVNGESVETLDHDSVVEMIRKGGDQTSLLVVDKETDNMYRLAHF

GRIP2_5, Q9C0E4 = molecular target: GRIP2_5, Q9C0E4
LNX2_2, Q8N448 = molecular target: T2, LNX2_2, Q8N448
T2 sequence (Q8N448 334-432, limits assumed, looked up): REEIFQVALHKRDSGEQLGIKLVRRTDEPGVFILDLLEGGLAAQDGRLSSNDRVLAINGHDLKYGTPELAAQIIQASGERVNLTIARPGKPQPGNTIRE

ARHGAP21, Q5T5U3 = molecular target: T3, ARHGAP21, Q5T5U3
T3 sequence (Q5T5U3 45-169, limits assumed, looked up): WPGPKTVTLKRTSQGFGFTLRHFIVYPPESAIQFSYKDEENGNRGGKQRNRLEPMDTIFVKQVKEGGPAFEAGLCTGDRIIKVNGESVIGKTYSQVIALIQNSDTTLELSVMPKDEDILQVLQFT

Inadl_2, Q8NI35 = molecular target: Inadl_2, Q8NI35
SNX27, Q96L92 = molecular target: SNX27, Q96L92
PDZRN3_1, Q9UPQ7 = molecular target: T4, PDZRN3_1, Q9UPQ7
T4 sequence (Q9UPQ7 244-349, limits assumed, looked up): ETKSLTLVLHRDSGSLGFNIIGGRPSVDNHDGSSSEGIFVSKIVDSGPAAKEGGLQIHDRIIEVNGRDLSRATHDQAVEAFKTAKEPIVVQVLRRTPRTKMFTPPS

SIPA1L2, Q9P2F8 = molecular target: T5, SIPA1L2, Q9P2F8
T5 sequence (Q9P2F8 945-1036, limits assumed, looked up): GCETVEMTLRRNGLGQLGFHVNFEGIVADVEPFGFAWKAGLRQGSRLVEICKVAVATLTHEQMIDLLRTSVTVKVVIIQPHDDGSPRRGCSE

NHERF4_4, Q86UT5 = molecular target: NHERF4_4, Q86UT5
DLG5_1, Q8TDM6 = molecular target: DLG5_1, Q8TDM6
Inadl_8, Q8NI35 = molecular target: Inadl_8, Q8NI35
SHANK1, Q9Y566 = molecular target: T6, SHANK1, Q9Y566
T6 sequence (Q9Y566 658-767, limits assumed, looked up): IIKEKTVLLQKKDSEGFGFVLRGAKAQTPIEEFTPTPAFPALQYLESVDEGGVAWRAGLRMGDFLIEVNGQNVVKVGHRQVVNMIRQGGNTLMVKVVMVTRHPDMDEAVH

RHPN1, Q8TCX5 = molecular target: T7, RHPN1, Q8TCX5
T7 sequence (Q8TCX5 508-602, limits assumed, looked up): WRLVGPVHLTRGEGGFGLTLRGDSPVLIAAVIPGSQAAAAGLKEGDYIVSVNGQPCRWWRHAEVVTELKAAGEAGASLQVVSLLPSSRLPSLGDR

PCLO, Q9Y6V0 = molecular target: T8, PCLO, Q9Y6V0
T8 sequence (Q9Y6V0 4491-4600, limits assumed, looked up): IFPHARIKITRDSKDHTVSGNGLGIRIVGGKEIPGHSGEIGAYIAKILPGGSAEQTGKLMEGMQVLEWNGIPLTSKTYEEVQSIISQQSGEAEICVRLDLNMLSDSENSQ

NHERF2_2, Q15599 = molecular target: NHERF2_2, Q15599
MPP6, Q9NZW5 = molecular target: T9, MPP6, Q9NZW5
T9 sequence (Q9NZW5 125-219, limits assumed, looked up): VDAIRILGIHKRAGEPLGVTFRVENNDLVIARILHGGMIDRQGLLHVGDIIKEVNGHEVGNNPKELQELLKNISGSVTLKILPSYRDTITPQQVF

ARHGEF11, O15085 = molecular target: T10, ARHGEF11, O15085
T10 sequence (O15085 42-136, limits assumed, looked up): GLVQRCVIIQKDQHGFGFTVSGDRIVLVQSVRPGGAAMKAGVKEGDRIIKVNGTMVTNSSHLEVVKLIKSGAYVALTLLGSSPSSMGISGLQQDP

DLG3_2, Q92796 = molecular target: T11, DLG3_2, Q92796
T11 sequence (Q92796 221-321, limits assumed, looked up): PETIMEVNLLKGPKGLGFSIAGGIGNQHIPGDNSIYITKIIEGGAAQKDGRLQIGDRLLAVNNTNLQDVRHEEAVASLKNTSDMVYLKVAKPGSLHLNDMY

[1] = plain residues with an end cap or a label only (N-terminal biotin on a linker: gsgsgs; C-terminal amide)
[2] = plain residues with an end cap or a label only (N-terminal biotin on a linker: ahx)

Measured: pKd

Sequence of PTPN3, P26045 (P26045 505-587): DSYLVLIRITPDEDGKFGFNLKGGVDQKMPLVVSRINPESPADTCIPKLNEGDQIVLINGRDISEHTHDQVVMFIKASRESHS
Sequence of NHERF4_4, Q86UT5 (Q86UT5 464-550): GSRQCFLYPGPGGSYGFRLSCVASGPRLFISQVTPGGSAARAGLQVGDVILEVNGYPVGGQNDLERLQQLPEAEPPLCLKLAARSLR
Sequence of NHERF2_2, Q15599 (Q15599 142-238): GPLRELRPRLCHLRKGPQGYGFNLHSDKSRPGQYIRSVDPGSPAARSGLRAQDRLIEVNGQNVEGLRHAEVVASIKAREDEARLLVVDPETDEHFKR
Sequence of IL16_4, Q14005 (Q14005 1229-1329): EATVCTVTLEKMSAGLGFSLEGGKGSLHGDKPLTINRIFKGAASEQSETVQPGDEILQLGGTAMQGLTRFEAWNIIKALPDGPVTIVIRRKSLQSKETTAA
Sequence of DLG5_1, Q8TDM6 (Q8TDM6 617-713): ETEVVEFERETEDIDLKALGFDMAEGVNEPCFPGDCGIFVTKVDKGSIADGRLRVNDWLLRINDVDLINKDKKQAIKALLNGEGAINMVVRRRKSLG
Sequence of Inadl_8, Q8NI35 (Q8NI35 1425-1530): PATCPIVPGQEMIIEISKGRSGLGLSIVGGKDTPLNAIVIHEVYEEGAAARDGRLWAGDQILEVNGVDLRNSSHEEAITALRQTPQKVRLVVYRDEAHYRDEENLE
Sequence of MAST1, Q9Y2H9 (Q9Y2H9 962-1065): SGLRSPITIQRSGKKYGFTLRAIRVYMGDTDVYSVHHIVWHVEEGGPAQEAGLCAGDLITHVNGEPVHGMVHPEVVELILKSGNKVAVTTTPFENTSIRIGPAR
Sequence of LDB3, O75112 (O75112 1-94): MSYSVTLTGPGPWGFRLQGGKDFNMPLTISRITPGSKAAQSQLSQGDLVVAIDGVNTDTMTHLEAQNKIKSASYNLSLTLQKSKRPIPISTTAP
Sequence of MAST2, Q6P0Q8 (Q6P0Q8 1099-1202): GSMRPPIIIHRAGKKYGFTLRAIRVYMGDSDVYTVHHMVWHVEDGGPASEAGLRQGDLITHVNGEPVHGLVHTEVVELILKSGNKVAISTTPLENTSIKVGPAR
Sequence of GORASP1, Q9BQQ3 (Q9BQQ3 1-208): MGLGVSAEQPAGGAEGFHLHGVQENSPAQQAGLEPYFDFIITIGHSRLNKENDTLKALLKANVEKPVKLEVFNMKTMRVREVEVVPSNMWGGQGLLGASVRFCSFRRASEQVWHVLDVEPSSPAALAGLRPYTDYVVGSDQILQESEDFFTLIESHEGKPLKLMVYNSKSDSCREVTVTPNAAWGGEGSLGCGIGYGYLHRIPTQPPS
Sequence of Inadl_2, Q8NI35 (Q8NI35 238-335): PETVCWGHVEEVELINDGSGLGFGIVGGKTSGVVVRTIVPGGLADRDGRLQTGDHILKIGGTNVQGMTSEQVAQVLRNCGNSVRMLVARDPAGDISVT
Sequence of PICK1, Q9NRD5 (Q9NRD5 17-115): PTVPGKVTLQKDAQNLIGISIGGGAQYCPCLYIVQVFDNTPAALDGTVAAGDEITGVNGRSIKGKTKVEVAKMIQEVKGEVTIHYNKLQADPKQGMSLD
Sequence of GRIP2_5, Q9C0E4 (Q9C0E4 544-642): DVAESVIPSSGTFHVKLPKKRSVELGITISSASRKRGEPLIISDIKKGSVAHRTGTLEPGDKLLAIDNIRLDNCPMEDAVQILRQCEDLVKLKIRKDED
Sequence of IL16_1, Q14005 (Q14005 210-306): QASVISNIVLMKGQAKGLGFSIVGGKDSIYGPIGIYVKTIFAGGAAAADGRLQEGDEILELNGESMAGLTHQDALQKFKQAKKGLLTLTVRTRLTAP
Sequence of TJP1_2, Q07157 (Q07157 181-274): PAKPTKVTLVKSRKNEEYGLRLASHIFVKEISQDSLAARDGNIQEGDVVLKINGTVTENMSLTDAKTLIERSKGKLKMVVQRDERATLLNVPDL

VSVDDVRSTSQGLSSY [DFNB31_int, Q9P202]
3.65: MPP6, Q9NZW5; [1]
3.68: PTPN3, P26045; [1]
4.12: DLG3_2, Q92796; [1]
below the threshold: LDB3, O75112; [1] | TJP1_2, Q07157; [1] | PICK1, Q9NRD5; [1] | MAST2, Q6P0Q8; [1] | IL16_4, Q14005; [1] | GORASP1, Q9BQQ3; [1] | MAST1, Q9Y2H9; [1] | IL16_1, Q14005; [1] | NHERF3_3, Q5T2W1; [1] | GRIP2_5, Q9C0E4; [1] | LNX2_2, Q8N448; [1] | ARHGAP21, Q5T5U3; [1] | Inadl_2, Q8NI35; [1] | SNX27, Q96L92; [1] | PDZRN3_1, Q9UPQ7; [1] | SIPA1L2, Q9P2F8; [1] | NHERF4_4, Q86UT5; [1] | DLG5_1, Q8TDM6; [1] | Inadl_8, Q8NI35; [1] | SHANK1, Q9Y566; [1] | RHPN1, Q8TCX5; [1] | PCLO, Q9Y6V0; [1] | NHERF2_2, Q15599; [1] | ARHGEF11, O15085; [1]

PSASCAVTAA [PDLIM4, P50479;P50479-2]
below the threshold: LDB3, O75112; [2] | TJP1_2, Q07157; [2] | PICK1, Q9NRD5; [2] | MAST2, Q6P0Q8; [2] | IL16_4, Q14005; [2] | GORASP1, Q9BQQ3; [2] | MAST1, Q9Y2H9; [2] | IL16_1, Q14005; [2] | PTPN3, P26045; [2] | NHERF3_3, Q5T2W1; [2] | GRIP2_5, Q9C0E4; [2] | LNX2_2, Q8N448; [2] | ARHGAP21, Q5T5U3; [2] | Inadl_2, Q8NI35; [2] | SNX27, Q96L92; [2] | PDZRN3_1, Q9UPQ7; [2] | SIPA1L2, Q9P2F8; [2] | NHERF4_4, Q86UT5; [2] | DLG5_1, Q8TDM6; [2] | Inadl_8, Q8NI35; [2] | SHANK1, Q9Y566; [2] | RHPN1, Q8TCX5; [2] | PCLO, Q9Y6V0; [2] | NHERF2_2, Q15599; [2] | MPP6, Q9NZW5; [2] | ARHGEF11, O15085; [2] | DLG3_2, Q92796; [2]

TVICWPGSLV [LNX2, Q8N448]
4.32: LNX2_2, Q8N448; [2]
4.17: PDZRN3_1, Q9UPQ7; [2]
3.95: SNX27, Q96L92; [2]
below the threshold: LDB3, O75112; [2] | TJP1_2, Q07157; [2] | IL16_4, Q14005; [2] | NHERF3_3, Q5T2W1; [2] | GRIP2_5, Q9C0E4; [2] | ARHGAP21, Q5T5U3; [2] | Inadl_2, Q8NI35; [2] | SIPA1L2, Q9P2F8; [2] | NHERF4_4, Q86UT5; [2] | DLG5_1, Q8TDM6; [2] | PCLO, Q9Y6V0; [2] | NHERF2_2, Q15599; [2] | MPP6, Q9NZW5; [2]
3.48: SHANK1, Q9Y566; [2]
4.1: MAST2, Q6P0Q8; [2]
3.75: PICK1, Q9NRD5; [2]
3.88: MAST1, Q9Y2H9; [2]
4.07: DLG3_2, Q92796; [2]
4.23: PTPN3, P26045; [2]
4.57: Inadl_8, Q8NI35; [2]
3.58: GORASP1, Q9BQQ3; [2] | ARHGEF11, O15085; [2]
4.54: IL16_1, Q14005; [2]
3.85: RHPN1, Q8TCX5; [2]
